Measured values as given in PMC9741643.

Columns and labels:
[1] = target: mouse IgG1 kappa anti-CD3 antibody (clone UTH1, BD bioscience 555329) (mouse); test: cross-linking; photo-crosslinking through BpA in PpL: 50-100 uM PpL construct with 1-4 uM antibody in PBS pH7.6, 365 nm light (6.4 mW/cm^2) up to 1 h; products reduced with DTT and read on SDS-PAGE
[2] = target: Cetuximab (Selleck Chemicals A2000); test: as above

Substance	yield of conjugated to un-conjugated light chain (by gel intensity) [1] [%]	photoconjugation yield (by gel) [2] [%]
PpL-R33BpA (PpL-linker-FLAG construct with BpA at R33) (designed binder)	30	
PpL-R33BpA with linker arm and Sortase A recognition site (PpL with the sortase site only) (designed binder)		75
